Laboratory results: article PMC10894068

Columns and labels:
Test in all cases: BLI
AN13A(479-594) (human) = biological target: AN13A(479-594) (human)
USP37(700-851) (human) = USP37(700-851) (human) (UniProt Q86T82)
UIMC1(76-128) (human) = UIMC1(76-128) (human) (UniProt Q96RL1)
UniProt Q96RL1, sequence (Q96RL1 76-128): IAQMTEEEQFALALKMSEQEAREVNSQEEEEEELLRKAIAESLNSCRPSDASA

UniProt Q86T82, sequence (Q86T82 700-851): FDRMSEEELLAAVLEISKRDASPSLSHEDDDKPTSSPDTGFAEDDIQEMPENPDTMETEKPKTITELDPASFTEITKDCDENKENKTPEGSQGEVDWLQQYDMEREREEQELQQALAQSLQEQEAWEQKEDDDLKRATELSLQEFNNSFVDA

| Substance | Kd (AN13A(479-594) (human)) | Kd (USP37(700-851) (human)) | Kd (UIMC1(76-128) (human)) |
| --- | --- | --- | --- |
| K63-diUb containing a native linkage (from UniProt P0CG47 1-76) (complex) | 0.25 µM | 4.97 µM | 2.17 µM |
| K11/K63-triUb-(1,0) (triUb-NC(1,0)) (from UniProt P0CG47 1-75; P0CG47 1-76; P0CG47 1-76) (complex) | 0.43 µM | 3.36 µM | 1.04 µM |
| K63/K48-triUb-(1,0) (triUb-NC(1,0)) (from UniProt P0CG47 1-75; P0CG47 1-76; P0CG47 1-76) (complex) | 0.74 µM | 2.71 µM | 2.43 µM |
| K11/K48-triUb-(1,0) (triUb-NC(1,0)) (from UniProt P0CG47 1-75; P0CG47 1-76; P0CG47 1-76) (complex) | 7.83 µM | – | – |
| K11-diUb (from UniProt P0CG47 1-76) (complex) | 1.28 µM | 8.89 µM | 2.92 µM |
